Assay results taken from patent US9694061B2, “Fully human antibodies to high molecular weight-melanoma associated antigen and uses thereof” (University of Pittsburgh—Of the Commonwealth System of …, priority 2008, dated 2017).

Experiments:
HMW-MAA [1] = target: T1, HMW-MAA (Homo sapiens, UniProt Q6UVK1); assay: Indirect immunoprecipitation and SDS-PAGE from labeled Colo38 cell lysate; assay type: binding
Method: FIG. 3. Structural relationship between molecules recognized by scFv C21 and by HMW-MAA-specific mouse mAb 763.74 in a HMW-MAA^+ Colo38 cell lysate. A 1% NP-40 extract of ^125I-labeled Colo38 cells was immunodepleted with mAb 763.74. The immunodepleted cell extract was immunoprecipitated with insolubilized mAb 763.74 and scFv C21. Antigens were eluted and analyzed by SDS-PAGE in an 8% polyacrylamide gel. Gels were fixed, dried and autoradiographed for up to 1 day at −80° C. A 1% NP-40 extract of ^125I-labeled Colo38 cells immunodepleted with 100 kD MAA-specific mouse mAb 376.94 was used as a control.
FIG. 4. Role of N-linked glycosylation in the expression of the antigenic determinant recognized by scFv C21 on HMW-MAA isolated from a HMW-MAA^+ Colo38 cell extract. A 1% NP-40 extract of Colo38 cells labelled with ^35S-methionine in the presence of tunicamycin (0, 2 and 3 μg/ml,) was immunoprecipitated with scFv C21. Antigens were eluted from the immunoadsorbent and analyzed by SDS-PAGE in an 8% polyacrylamide gel. Gels were fixed, dried and processed for fluorography for up to three days at −80° C. using Hyperfilm-ECL. HMW-MAA-specific mouse mAb 763.74 was used as a control.
Labeling of cells with ^125Iodine (Na^125 I; Amersham) or with ^35S methionine (Trans-^35S-label, ICN Biochemicals, Costa Mesa, Calif.) in the presence of tunicamycin (Sigma Chemical Co.) was performed as described (Noronha et al., J Immunol 161:2968-2976, 1998; Desai et al., J Immunol 165:3275-3283, 2000). Solubilization of labelled cells, immunoprecipitation, SDS-PAGE, autoradiography and fluorography were performed as described (Desai et al., Cancer Res 58:2417-2425, 1998) except for the use of Gammon Bind plus sepharose (Amersham) instead of protein A coated with rabbit anti-mouse IgG antibodies.

HMW-MAA [2] = target: T1, HMW-MAA; assay: Competition assay to map the antigenic determinant on SK-MEL-28 cells; assay type: binding; set-up: from tissue; host or cells: human nevi, primary and metastatic melanoma lesions (frozen sections); settings: biotinylated mAb VF1-TP34, competitor PP scFv C21
Method: FIG. 5. Spatial proximity of the determinant defined by scFv C21 and of that defined by mouse mAb VF1-TP34 on HMW-MAA^+ melanoma cells SK-MEL-28. Varying concentrations of mAb VF1-TP34 (-●-) (left panel) were mixed with biotinylated scFv C21 (0.25 μg/well). The mixture was then transferred to wells containing HMW-MAA^+ cells and incubated for 1 h at 4° C. Binding of antibodies was detected using SA-HRP. Results are expressed as % inhibition. Likewise, varying amounts of PP scFv C21 (-▴-) (right panel) were mixed with biotinylated mAb VF1-TP34 (40 ng/well). The mixture was then transferred to wells containing HMW-MAA^+ cells and incubated for 1 h at 4° C. […]
The ELISA to test the reactivity of soluble scFv antibodies with synthetic peptides and melanoma cells and of mouse immune sera with melanoma cells and with peptides was performed as described (Desai et al., Cancer Res 58:2417-2425, 1998; Desai et al., J Immunol 165:3275-3283, 2000; Matsui et al., J Immunol 139:2088-2095, 1987). Results are expressed as absorbance of optical density (O.D.) at 450 nm. The competition assay to map the antigenic determinant recognized by scFv C21 was performed by mixing biotinylated scFv C21 (0.25 μg/well) with two-fold dilutions of mouse mAb or scFv PP or by mixing biotinylated mAb (at an optimal amount giving absorbance, measured at 450 nm of 1.0) with two fold dilutions of scFv PP. […]

HMW-MAA [3] = assay: ELISA of soluble scFv antibodies with cell lines; assay type: binding, human; settings: soluble scFv clones isolated by panning with Colo38 cells
Method: (§1) FIG. 1. Selective reactivity in ELISA of soluble scFv C21 with HMW-MAA^+ human cell lines. […] Binding of scFv fragments was detected using SA-HRP. Results are expressed as absorbance at 490 nm. Human anti-anti-id scFv #119 ( ? ) was used as a specificity control.
(§2) The ELISA to test the reactivity of soluble scFv antibodies with synthetic peptides and melanoma cells and of mouse immune sera with melanoma cells and with peptides was performed as described (Desai et al., Cancer Res 58:2417-2425, 1998; Desai et al., J Immunol 165:3275-3283, 2000; Matsui et al., J Immunol 139:2088-2095, 1987). Results are expressed as absorbance of optical density (O.D.) at 450 nm. The competition assay to map the antigenic determinant recognized by scFv C21 was performed by mixing biotinylated scFv C21 (0.25 μg/well) with two-fold dilutions of mouse mAb or scFv PP or by mixing biotinylated mAb (at an optimal amount giving absorbance, measured at 450 nm of 1.0) with two fold dilutions of scFv PP. […] Binding of biotinylated scFv antibodies and biotinylated mAb to target cells was measured by sequential incubation with SA-HRP and substrate as described (Noronha et al., J Immunol 161:2968-2976, 1998). The results are expressed as percent inhibition by mAb, scFv or peptide (competitor or inhibitor) of scFv or mAb binding to HMW-MAA^+ cells. […]

HMW-MAA [4] = target: T1, HMW-MAA; assay: ELISA of soluble scFv antibodies with cell lines; assay type: binding; set-up: Cultured human melanoma cells Colo38, FO-1, SK-MEL-28 and Melur, all of which express HMW-MAA; endogenous in cells; host or cells: Colo38, FO-1, SK-MEL-28, Melur human melanoma cells
Method: as §1, §2

T1 sequence (Q6UVK1 30-2322): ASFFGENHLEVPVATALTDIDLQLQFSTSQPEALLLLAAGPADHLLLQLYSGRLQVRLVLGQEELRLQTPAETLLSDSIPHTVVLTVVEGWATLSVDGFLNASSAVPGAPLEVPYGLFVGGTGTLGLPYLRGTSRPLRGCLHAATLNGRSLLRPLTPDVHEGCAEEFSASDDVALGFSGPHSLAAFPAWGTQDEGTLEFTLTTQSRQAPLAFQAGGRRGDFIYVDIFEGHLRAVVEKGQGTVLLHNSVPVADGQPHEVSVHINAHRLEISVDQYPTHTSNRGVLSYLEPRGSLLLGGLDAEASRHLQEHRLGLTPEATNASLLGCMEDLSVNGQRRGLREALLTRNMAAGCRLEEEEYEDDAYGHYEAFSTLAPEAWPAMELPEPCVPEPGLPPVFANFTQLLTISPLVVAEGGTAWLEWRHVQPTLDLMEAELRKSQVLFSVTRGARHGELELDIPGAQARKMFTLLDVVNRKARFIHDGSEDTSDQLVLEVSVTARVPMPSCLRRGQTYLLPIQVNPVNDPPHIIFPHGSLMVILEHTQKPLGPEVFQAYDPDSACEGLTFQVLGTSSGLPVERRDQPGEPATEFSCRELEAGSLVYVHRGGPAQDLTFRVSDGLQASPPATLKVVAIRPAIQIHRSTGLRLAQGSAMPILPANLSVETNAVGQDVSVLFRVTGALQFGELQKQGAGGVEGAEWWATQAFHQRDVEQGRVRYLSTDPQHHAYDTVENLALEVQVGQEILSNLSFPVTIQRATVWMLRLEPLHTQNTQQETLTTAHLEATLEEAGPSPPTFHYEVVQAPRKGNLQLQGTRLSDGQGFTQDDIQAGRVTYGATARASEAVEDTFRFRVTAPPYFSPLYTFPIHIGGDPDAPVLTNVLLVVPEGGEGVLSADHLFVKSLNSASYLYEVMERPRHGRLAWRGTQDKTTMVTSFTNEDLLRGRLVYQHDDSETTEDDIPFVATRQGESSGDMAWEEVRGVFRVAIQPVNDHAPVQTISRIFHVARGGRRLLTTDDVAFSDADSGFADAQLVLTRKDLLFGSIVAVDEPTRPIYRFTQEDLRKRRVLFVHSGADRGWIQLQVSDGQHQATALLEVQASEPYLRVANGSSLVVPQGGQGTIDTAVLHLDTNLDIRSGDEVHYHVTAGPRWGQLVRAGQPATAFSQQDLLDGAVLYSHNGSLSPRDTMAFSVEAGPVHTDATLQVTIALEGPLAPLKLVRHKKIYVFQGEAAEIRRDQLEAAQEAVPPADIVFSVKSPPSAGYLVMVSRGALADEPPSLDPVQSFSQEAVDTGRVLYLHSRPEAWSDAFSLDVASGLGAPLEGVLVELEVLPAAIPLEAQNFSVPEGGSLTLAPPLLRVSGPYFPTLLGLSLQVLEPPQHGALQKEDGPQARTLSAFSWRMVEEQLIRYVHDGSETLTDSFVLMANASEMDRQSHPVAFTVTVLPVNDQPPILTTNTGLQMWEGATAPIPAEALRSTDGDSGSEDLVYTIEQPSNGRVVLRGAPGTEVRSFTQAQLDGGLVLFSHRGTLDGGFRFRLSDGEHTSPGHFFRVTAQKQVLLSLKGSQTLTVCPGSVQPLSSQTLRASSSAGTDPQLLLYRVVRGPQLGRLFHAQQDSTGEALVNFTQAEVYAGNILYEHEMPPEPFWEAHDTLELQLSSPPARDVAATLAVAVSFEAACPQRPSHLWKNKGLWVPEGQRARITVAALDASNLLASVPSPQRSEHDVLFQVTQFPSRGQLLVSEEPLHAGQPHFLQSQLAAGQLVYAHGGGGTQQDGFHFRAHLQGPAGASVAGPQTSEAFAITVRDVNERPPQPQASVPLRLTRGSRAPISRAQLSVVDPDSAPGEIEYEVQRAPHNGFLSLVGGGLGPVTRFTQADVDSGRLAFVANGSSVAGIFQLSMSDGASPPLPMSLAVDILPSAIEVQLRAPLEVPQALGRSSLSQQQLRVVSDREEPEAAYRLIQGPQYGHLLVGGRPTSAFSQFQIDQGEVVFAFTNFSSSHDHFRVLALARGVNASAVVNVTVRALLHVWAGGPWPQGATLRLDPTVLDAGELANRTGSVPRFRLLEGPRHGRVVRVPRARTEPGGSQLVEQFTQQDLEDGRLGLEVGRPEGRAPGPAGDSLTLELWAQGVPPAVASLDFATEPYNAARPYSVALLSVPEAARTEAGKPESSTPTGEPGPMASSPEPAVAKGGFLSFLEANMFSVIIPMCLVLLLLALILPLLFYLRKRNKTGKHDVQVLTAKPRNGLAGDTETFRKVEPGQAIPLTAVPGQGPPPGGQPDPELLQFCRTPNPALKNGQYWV

B1: scFv C21: HMW-MAA-specific fully human scFv from semi-synthetic phage display library; VH SEQ ID NO: 5, VL SEQ ID NO: 6 (antibody, listed as Homo sapiens, V domains shown)
VH: QVQLVQSGAEVKKPGSSVKVSCKASGGTFSSYAISWVRQAPGQGLEWMGGIIPIFGTANYAQKFQGRVTITADESTSTAYMELSSLRSDDTAVYYCARALDPITFDSWGQGTLVTVSR
VL: SELTQDPAVSVALGQTVRITCQGDSLRSYYASWYQQKPGQAPVLVIYGKNNRPSGIPDRFSGSSSGNTASLTITGAQAEDEADYYCNSRDSSGNHVVFGGGTKLTVLGRS
modifications: scFv linker
Effect of immunodepletion of Colo38 cell lysate with scFv C21 on components immunoprecipitated by mAb 763.74 (HMW-MAA [1]): removed most, but not all the components immunoprecipitated by mAb 763.74 | Immunoprecipitation from 125I labeled Colo38 cells (HMW-MAA [1]): immunoprecipitated two components with the characteristic elecrophoretic profile of HMW-MAA components | Intensity of HMW-MAA components immunoprecipitated from Colo38 cells labeled in the presence of tunicamycin (HMW-MAA [1]; 35S-methionine labeling, N-glycosylation inhibitor tunicamycin): marked reduction in the intensity of the HMW-MAA components immunoprecipitated | Immunoprecipitation from Colo38 cell lysate immunodepleted with mAb 763.74 (HMW-MAA [1]; sequential immunoprecipitation): did not immunoprecipitate any components | Immunoprecipitation from Colo38 cell lysate immunodepleted with 100KD MAA-specific mAb 376.96 (HMW-MAA [1]; specificity control of immunodepletion): immunoprecipitated the HMW-MAA components | Inhibition of binding of mAb VF1-TP34 to SK-MEL-28 cells (HMW-MAA [2]): partially inhibited each other | Reactivity in ELISA with Colo38, FF2376 fibroblasts and T24 bladder carcinoma cells (HMW-MAA [3]): selective reactivity with Colo38 cells | Reactivity in ELISA with panel of human cell lines with differential HMW-MAA expression and rat neural cell line B49 (HMW-MAA [4]; FIG. 1): reacted only with the melanoma cell lines Colo38, FO-1, Melur and SK-MEL-28 | Reactivity in ELISA relative to the other selected clones (HMW-MAA [4]; clones C3, C21, C29, C30): highest reactivity
